Consider five substances from US20120014998A1.

The target in the test is GroEL (E. coli Cpn60) (E. coli) (UniProt P0A6F5). As to the kind of experiment: cell-based or functional assay.
Chain of GroEL (E. coli Cpn60) (E. coli) (P0A6F5 2-548 limits assumed): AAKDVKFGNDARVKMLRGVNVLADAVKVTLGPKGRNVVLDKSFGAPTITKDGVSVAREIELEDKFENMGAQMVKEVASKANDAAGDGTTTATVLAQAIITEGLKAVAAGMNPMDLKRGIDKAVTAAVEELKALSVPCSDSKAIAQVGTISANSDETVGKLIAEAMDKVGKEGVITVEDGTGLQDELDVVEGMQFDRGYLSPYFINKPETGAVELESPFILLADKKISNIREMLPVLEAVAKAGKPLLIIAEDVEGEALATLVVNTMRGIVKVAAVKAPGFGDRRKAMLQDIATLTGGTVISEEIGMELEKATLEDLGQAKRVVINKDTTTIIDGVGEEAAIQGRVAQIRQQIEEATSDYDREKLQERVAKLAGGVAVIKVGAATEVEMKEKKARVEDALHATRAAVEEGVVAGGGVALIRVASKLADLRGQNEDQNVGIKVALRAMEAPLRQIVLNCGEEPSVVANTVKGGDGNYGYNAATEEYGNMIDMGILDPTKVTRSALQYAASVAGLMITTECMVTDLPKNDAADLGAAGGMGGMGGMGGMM

Chain of Ala-Cpn10 (Wild type Cpn10) (P61604 other isoform, or with tags, fused parts or gaps limits assumed): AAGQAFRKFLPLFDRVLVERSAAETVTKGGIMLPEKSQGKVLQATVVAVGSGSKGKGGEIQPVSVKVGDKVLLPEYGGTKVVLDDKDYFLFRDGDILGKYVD
Chain of Ala-Cpn10-cHis (P61604 other isoform, or with tags, fused parts or gaps limits assumed): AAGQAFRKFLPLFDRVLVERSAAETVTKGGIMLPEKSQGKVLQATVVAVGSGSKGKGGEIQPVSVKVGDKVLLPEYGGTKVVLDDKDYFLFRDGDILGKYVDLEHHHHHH
Chain of Gly-Cpn10 (P61604 other isoform, or with tags, fused parts or gaps limits assumed): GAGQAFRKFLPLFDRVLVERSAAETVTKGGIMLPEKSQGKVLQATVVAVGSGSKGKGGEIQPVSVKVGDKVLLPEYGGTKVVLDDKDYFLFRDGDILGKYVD
Chain of X-Cpn10 (i.e. non-acetylated) (P61604 2-102 limits assumed): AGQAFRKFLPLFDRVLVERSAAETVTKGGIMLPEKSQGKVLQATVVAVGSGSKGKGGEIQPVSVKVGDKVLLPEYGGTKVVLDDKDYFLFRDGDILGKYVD

Turning to “X-Cpn10 (i.e. non-acetylated) (from UniProt P61604 2-102)”, the Refolding activity (% of Ala-Cpn10) (% of Ala-Cpn10) worked out at 105. The value for “Cpn10-NtermES (from UniProt P61604 11-102)” was 12; that for “Ala-Cpn10 (Wild type Cpn10) (from UniProt P61604 2-102)” was 100.

Regarding Gly-Cpn10 (from UniProt P61604 2-102), the Refolding activity (% of Ala-Cpn10) (% of Ala-Cpn10) was 107. With “Ala-Cpn10-cHis (from UniProt P61604 2-102)” the figure was 40.
